In data set [1] the target is T1, His6-LexA (Escherichia coli) (UniProt P0A7C2).
T1 sequence: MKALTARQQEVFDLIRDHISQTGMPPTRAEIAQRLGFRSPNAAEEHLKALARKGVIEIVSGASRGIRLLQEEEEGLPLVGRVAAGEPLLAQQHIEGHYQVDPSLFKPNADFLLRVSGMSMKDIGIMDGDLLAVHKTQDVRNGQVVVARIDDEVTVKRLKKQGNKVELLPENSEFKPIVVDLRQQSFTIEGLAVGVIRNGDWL
Description: EMSA. The conditions noted are these: 10 mM HEPES pH 8, 10 mM Tris-HCl pH 8, 50 mM KCl, 1 mM EDTA; on ice 20 min; 40 ng DNA, 0-600 ng LexA in 10 uL; 6% native Tris-glycine PAGE, SYBR Green. For orientation: In EMSA bound probe runs differently from free probe, usually more slowly.

A further data set concerns the target His6-LexA (Escherichia coli, UniProt P0A7C2 1-202). The data set is described as follows: EMSA; 10 mM HEPES pH 8, 10 mM Tris-HCl pH 8, 50 mM KCl, 1 mM EDTA; on ice 20 min; 40 ng DNA, 0-600 ng LexA in 10 uL; 6% native Tris-glycine PAGE, SYBR Green. The conditions noted are these: protein: recombinant; tags: N-terminal His6; blunt.

Regarding “CAACCGGTAGTGGCTGATAACAACTCGTGAGGGCTATTGCGGGTTAAGCATTTAGCGATGTCTAGGGCCAGACTGGACGTCTGAACGCAAGCCGCTGATACTGTACATAACCACAGTATCAGCGGAGGATACCCATGTCGCTGGCAAGGAACGCCACGGCGAGTCAATCGCCCACTCAAACAAACGGTTACGAACGCCACCAACCCGACCAGACGCTG (double strand) [Prcr1]”, the binding result in data set [1] is on record as “binds”. With “CCGGAATTCGGGAGTGACGGGCACTGGCTGGCAATGTCTAGCAACGGCAGGCATTTCGGCTGAGGGTAAAAGAACTTTCCGCTAAGCGATAGACTGTATGTAAACACAGTATTGCAAGGACGCGGAACATGCCTCATGTGGCGGCCAGGACGGCCAGCCGGGATCGGGATACTGGTCGTTACCAGAGCCACCGACCCGAGCAAACCCTT (double strand) [Prcr2]”, in data set [1], the binding result was “binds”.

B1: Prcr8 (dsDNA)
DNA 1: GGCGACGGTTCGGGCCTTGTGCTTTGCGTACCCAAACAATCGCCGCAGAATACTGTGCATTTGTACAGCATTCATGTCAGCCACTTCCAAGCCCAAGCTCTACAACCCACGCCACCCCGA
DNA 2: TCGGGGTGGCGTGGGTTGTAGAGCTTGGGCTTGGAAGTGGCTGACATGAATGCTGTACAAATGCACAGTATTCTGCGGCGATTGTTTGGGTACGCAAAGCACAAGGCCCGAACCGTCGCC
For B1, the binding result with His6-LexA is given as “binds”.

B2: Prcr8 L (dsDNA)
DNA 1: GGCGACGGTTCGGGCCTTGTGCTTTGCGTACCCAAACAATCGCCGCAGAATACTGTGCATTTGTAACTCATTCATGTCAGCCACTTCCAAGCCCAAGCTCTACAACCCACGCCACCCCGA
DNA 2: TCGGGGTGGCGTGGGTTGTAGAGCTTGGGCTTGGAAGTGGCTGACATGAATGAGTTACAAATGCACAGTATTCTGCGGCGATTGTTTGGGTACGCAAAGCACAAGGCCCGAACCGTCGCC
modifications: LexA box mutated (terminal ACAG to AACT)
B2: the binding result with His6-LexA was “no binding”.

For the origin of these results see publication PMC13393415, “The bacterial SOS response promotes the expression of the transposase encoded by ISCR mobile genetic elements”.
